One test addresses CaM (Homo sapiens, UniProt P0DP23). Briefly: steady-state fluorescence anisotropy.
The next test addresses T1, S100A1 (Homo sapiens, UniProt P23297).
T1 chain: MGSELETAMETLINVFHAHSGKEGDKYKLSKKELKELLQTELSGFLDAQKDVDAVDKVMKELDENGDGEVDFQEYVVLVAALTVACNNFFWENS
As to the kind of experiment: steady-state fluorescence anisotropy. Background: Fluorescence polarisation rises when a labelled molecule tumbles more slowly, as on binding a larger partner.

No end group written: not given here. *: point of attachment. FITC = O=C1OC2(c3ccc(O)cc3Oc3cc(O)ccc32)c2ccc(NC(=S)*)cc21

B1: TRPM6np (peptide)
chain: {FITC}-LIGRAYRSNYTRKHFR
Broadly, the Kd is the equilibrium constant for the complex coming apart. Higher therefore signals weaker binding. As to B1, the dissociation constant (Kd) in the test with CaM stood at 14.9 µM; with S100A1 it was 17.8 µM.

Values taken from publication PMC6770577 (2019).
